Experimental findings from IntAct's records for PubMed 20526328 are described below.

B1: Kinesin-like protein KIF17 (Homo sapiens), Q9P2E2 (parent)
chain: MASEAVKVVVRCRPMNQRERELRCQPVVTVDCARAQCCIQNPGAADEPPKQFTFDGAYHVDHVTEQIYNEIAYPLVEGVTEGYNGTIFAYGQTGSGKSFTMQGLPDPPSQRGIIPRAFEHVFESVQCAENTKFLVRASYLEIYNEDVRDLLGADTKQKLELKEHPEKGVYVKGLSMHTVHSVAQCEHIMETGWKNRSVGYTLMNKDSSRSHSIFTISIEMSAVDERGKDHLRAGKLNLVDLAGSERQSKTGATGERLKEATKINLSLSALGNVISALVDGRCKHVPYRDSKLTRLLQDSLGGNTKTLMVACLSPADNNYDETLSTLRYANRAKNIRNKPRINEDPKDALLREYQEEIKKLKAILTQQMSPSSLSALLSRQVPPDPVQVEEKLLPQPVIQHDVEAEKQLIREEYEERLARLKADYKAEQESRARLEEDITAMRNSYDVRLSTLEENLRKETEAVLQVGVLYKAEVMSRAEFASSAEYPPAFQYETVVKPKVFSTTDTLPSDDVSKTQVSSRFAELPKVEPSKSEISLGSSESSSLEETSVSEAFPGPEEPSNVEVSMPTEESRSRYFLDECLGQEAAGHLLGEQNYLPQEEPQEVPLQGLLGLQDPFAEVEAKLARLSSTVARTDAPQADVPKVPVQVPAPTDLLEPSDARPEAEAADDFPPRPEVDLASEVALEVVRTAEPGVWLEAQAPVALVAQPEPLPATAGVKRESVGMEVAVLTDDPLPVVDQQQVLARLQLLEQQVVGGEQAKNKDLKEKHKRRKRYADERRKQLVAALQNSDEDSGDWVLLNVYDSIQEEVRAKSKLLEKMQRKLRAAEVEIKDLQSEFQLEKIDYLATIRRQERDSMLLQQLLEQVQPLIRRDCNYSNLEKILRESCWDEDNGFWKIPHPVITKTSLPVAVSTGPQNKPARKTSAADNGEPNMEDDRYRLMLSRSNSENIASNYFRSKRASQILSTDARKSLTHHNSPPGLSCPLSNNSAIPPTQAPEMPQPRPFRLESLDIPFTKAKRKKSKSNFGSEPL

This experiment covers variants of B1. The settings on record: with tnpo1_human TNPO1, Q92973.
tnpo1_human TNPO1, Q92973, sequence (Q92973 whole entry): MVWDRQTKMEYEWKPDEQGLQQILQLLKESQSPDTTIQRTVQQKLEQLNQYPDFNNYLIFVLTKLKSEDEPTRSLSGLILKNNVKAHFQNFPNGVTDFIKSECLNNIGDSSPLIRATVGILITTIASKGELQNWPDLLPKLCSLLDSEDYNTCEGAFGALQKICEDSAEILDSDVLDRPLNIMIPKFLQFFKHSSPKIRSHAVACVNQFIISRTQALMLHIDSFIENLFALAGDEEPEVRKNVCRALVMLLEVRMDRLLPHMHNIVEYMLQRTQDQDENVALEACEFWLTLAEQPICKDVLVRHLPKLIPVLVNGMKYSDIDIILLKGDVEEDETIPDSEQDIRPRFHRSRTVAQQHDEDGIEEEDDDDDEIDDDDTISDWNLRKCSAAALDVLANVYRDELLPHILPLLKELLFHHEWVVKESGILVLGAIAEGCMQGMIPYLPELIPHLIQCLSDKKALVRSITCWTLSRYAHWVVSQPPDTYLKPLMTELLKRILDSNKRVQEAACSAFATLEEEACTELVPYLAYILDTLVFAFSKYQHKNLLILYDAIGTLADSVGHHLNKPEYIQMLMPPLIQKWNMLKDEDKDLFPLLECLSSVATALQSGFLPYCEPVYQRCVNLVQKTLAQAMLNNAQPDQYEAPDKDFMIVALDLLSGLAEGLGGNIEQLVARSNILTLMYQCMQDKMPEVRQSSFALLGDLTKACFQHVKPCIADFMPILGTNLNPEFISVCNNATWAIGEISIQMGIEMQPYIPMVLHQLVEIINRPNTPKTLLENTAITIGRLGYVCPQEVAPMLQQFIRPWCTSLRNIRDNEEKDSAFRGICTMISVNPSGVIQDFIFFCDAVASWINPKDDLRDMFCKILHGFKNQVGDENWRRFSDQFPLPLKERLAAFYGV
Consider K1016A;R1017A;K1018A;K1019A, for which the “effect of a mutation on the interaction” value is recorded as “disrupting interaction strength”.
